Experiments:
[1] = Example 2: body weight of AR42J xenograft SWISS mice; parameters: species or system SWISS nude mice; details: mouse, in vivo
Protocol: 10 min prior to dosing of ^177Lu-DOTATOC, mice of groups 1 and 2 were injected intraperitoneally with 50 μL saline or PAH, respectively.
(§1) Body weight and tumor volume were evaluated every two to three days for a period of 46 days after treatment (or until the tumor size limit was reached). The tumor volume was determined by measuring the length, the width and the depth of the tumor with a digital caliper. Tumor volume was calculated by using the following formula: […]
(§2) The mice were monitored until the individual tumor size reached 1500 mm^3. When this experimental endpoint was reached or after a 46 days period following treatment, mice were euthanized. Mean tumor volume and body weight of AR42J xenograft SWISS mice were calculated for each treatment group throughout the duration of the study.

[2] = Example 1: body weight of AR42J xenograft CD1 nude mice; details: mouse, in vivo
Protocol: as §1, with “57” for “46”
as §2, with “57” for “46”, “CD1 nude” for “SWISS”

Question: What does the source list for C[C@@H](O)[C@@H]1NC(=O)[C@H](CCCCN)NC(=O)[C@@H](Cc2c[nH]c3ccccc23)NC(=O)[C@H](Cc2ccc(O)cc2)NC(=O)[C@@H](NC(=O)[C@@H](Cc2ccccc2)NC(=O)CN2CCN(CC(=O)O)CCN(CC(=O)O)CCN(CC(=O)O)CC2)CSSC[C@@H](C(=O)N[C@H](CO)[C@@H](C)O)NC1=O [^177Lu-DOTATOC, ^177Lu-DOTA-D-Phe-cyclo(Cys-Tyr-D-Trp-Lys-Thr-Cys]-Thr(ol), metal not drawn]?
Answer: average weight increase compared to tumor-bearing control mice [1]: increased slightly more slowly; physical appearance throughout the study period [1]: maintained a healthy physical appearance; radiotoxicity (suggested by body weight) [1]: low radiotoxicity; average weight change compared to untreated tumor-bearing control mice [2]: increased similarly; physical appearance throughout the study period [2]: maintained a healthy physical appearance
